Reference: patent publication US20040014194

T1: Biotin-KSEVNL*DAEFRK-Fluorescein (SEQ ID NO: 3), peptide substrate derived from the sequence of "Swedish" amyloid protein peptide
T1 chain: KSEVNLDAEFRK


Target: T1, Biotin-KSEVNL*DAEFRK-Fluorescein (SEQ …)

Protein | specificity constant (kcat/Km) [M⁻¹ s⁻¹]
ProBACE (SEQ ID NO: 2), Sf9-derived soluble pro-β-secretase (protein) TQHGIRLPLRSGLGGAPLGLRLPRETDEEPEEPGRRGSFVEMVDNLRGKSGQGYYVEMTVGSPPQTLNILVDTGSSNFAVGAAPHPFLHRYYQRQLSSTYRDLRKGVYVPYTQGKWEGELGTDLVSIPHGPNVTVRANIAAITESDKFFINGSNWEGILGLAYAEIARPDDSLEPFFDSLVKQTHVPNLFSLQLCGAGFPLNQSEVLASVGGSMIIGGIDHSLYTGSLWYTPIRREWYYEVIIVRVEINGQDLKMDCKEYNYDKSIVDSGTTNLRLPKKVFEAAVKSIKAASSTEKFPDGFWLGEQLVCWQAGTTPWNIFPVISLYLMGEVTNQSFRITILPQQYLRPVEDVATSQDDCYKFAISQSSTGTVMGAVIMEGFYVVFDRARKRIGFAVSACHVHDEFRTAAVEGPFVTLDMEDCGYNIPQTDESTLE | 1500 ± 100
mature BACE (SEQ ID NO: 1), Sf9-derived glycosylated human β-secretase (protein) ETDEEPEEPGRRGSFVEMVDNLRGKSGQGYYVEMTVGSPPQTLNILVDTGSSNFAVGAAPHPFLHRYYQRQLSSTYRDLRKGVYVPYTQGKWEGELGTDLVSIPHGPNVTVRANIAAITESDKFFINGSNWEGILGLAYAEIARPDDSLEPFFDSLVKQTHVPNLFSLQLCGAGFPLNQSEVLASVGGSMIIGGIDHSLYTGSLWYTPIRREWYYEVIIVRVEINGQDLKMDCKEYNYDKSIVDSGTTNLRLPKKVFEAAVKSIKAASSTEKFPDGFWLGEQLVCWQAGTTPWNIFPVISLYLMGEVTNQSFRITILPQQYLRPVEDVATSQDDCYKFAISQSSTGTVMGAVIMEGFYVVFDRARKRIGFAVSACHVHDEFRTAAVEGPFVTLDMEDCGYNIPQTDESTLE | 1500 ± 100
